Source: patent US20250213666A1

Molecular target: Spike protein on SARS-CoV-2 pseudovirus expressing luciferase (COVID-19 Pseudovirus Neutralizing Antibody Assay, Abnova) (SARS-CoV-2) (UniProt P0DTC2)
Test: cell-based or functional assay

In the case of “Intimin-Ty1 nanobody (pIntimin-Ty1), surface displayed on E. coli Nissle 1917 or on its OMVs (VHH)”, the Pseudovirus-ACE2 receptor inhibition, OMVs at 22 µg/mL is reported as 30 to 32%.
